# Measurements taken from patent US20090136523A1 (published 2009).
# B1: rhuMAb 411 (antibody, human IgG1, kappa, V domains shown)
# VH: EVQLVESGAGVKQPGGTLRLTCTASGFSLTTYGVHWVRQAPGKGLEWVGVIWGDGRTDYDAAFMSRVTISKDTSKSTVYLQMNSLRAEDTAVYYCMRNRHDWFDYWGQGTTVTVSS
# VL: DILLTQSPSSLSATPGERATITCRASQGIRNNLNWYQQKPGQAPRLLIYYSSNLQSGVPSRFSGSGSGTDFTLTISRLQPEDVAAYYCQQSIKLPFTFGSGTKVEIKR
# notes: also called X411
# Assays:
# peptide 125 (human) = experiment: peptide microarray
# peptide 69 (human) = experiment: peptide microarray
# peptide 13 (human) = experiment: peptide microarray
# peptide 121 (human) = experiment: peptide microarray
# peptide 16 (human) = experiment: peptide microarray
# [1] = target: T1, Purified recombinant human CD26 (rhDipeptidyl peptidase IV), R&D Systems CAT# 1180-SE (human, UniProt P27487 29-766); experiment: SPR (Biacore), IgG1 over CD26
# T1 construct: also called hu-CD26; soluble human CD26
# Protocol: Fabs produced in E. coli as described below were diluted in PBS in a concentration of ˜0.5 μM for the assay. A typical recording included a 3 minute period of injection of the Fab followed by a period of 15 minutes of dissociation, and analysis was performed based on the raw data of the binding curves accordingly.
# Analyses thereof were performed using Biacore® as described in Example 1, excepting the binding partners were the rhuMAbs noted above.
# T1 sequence (P27487 29-766 limits assumed): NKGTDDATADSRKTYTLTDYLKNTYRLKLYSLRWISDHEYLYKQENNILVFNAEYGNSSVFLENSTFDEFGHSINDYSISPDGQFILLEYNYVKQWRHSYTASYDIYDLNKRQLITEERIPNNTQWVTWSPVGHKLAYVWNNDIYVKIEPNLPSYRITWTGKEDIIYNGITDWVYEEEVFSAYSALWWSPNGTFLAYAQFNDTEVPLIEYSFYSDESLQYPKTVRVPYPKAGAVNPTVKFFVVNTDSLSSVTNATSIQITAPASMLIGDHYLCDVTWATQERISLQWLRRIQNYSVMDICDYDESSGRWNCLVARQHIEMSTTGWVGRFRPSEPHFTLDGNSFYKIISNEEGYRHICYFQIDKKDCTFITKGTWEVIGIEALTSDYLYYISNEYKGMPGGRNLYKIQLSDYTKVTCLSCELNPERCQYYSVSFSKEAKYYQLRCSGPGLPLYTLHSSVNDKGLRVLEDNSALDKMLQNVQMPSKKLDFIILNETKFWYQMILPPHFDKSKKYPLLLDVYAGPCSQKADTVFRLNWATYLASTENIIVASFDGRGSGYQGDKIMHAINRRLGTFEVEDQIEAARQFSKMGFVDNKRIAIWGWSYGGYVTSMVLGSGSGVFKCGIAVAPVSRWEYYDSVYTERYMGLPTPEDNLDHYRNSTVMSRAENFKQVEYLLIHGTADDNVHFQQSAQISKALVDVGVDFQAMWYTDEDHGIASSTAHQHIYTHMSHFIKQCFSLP
binder,measurement,setting,value
B1,Mean Signal Value,peptide 125 (human),1.8
same,Mean Signal Value,peptide 69 (human),2.45
same,Mean Signal Value,peptide 13 (human),1.94
same,Mean Signal Value,peptide 121 (human),2.08
same,Mean Signal Value,peptide 16 (human),1.92
same,koff,[1],0.000108 s⁻¹
same,kon,[1],485000 M⁻¹ s⁻¹
